The results in this text go back to publication PMC2752052.

This series deals with NC(=O)c1ccc[n+]([C@@H]2O[C@H](COP(=O)([O-])OP(=O)(O)OC[C@H]3O[C@@H](n4cnc5c(N)ncnc54)[C@H](O)[C@@H]3O)[C@@H](O)[C@H]2O)c1. The series is described as follows: purified protein. The format is biochemical, Homo sapiens.

For CD38 (Homo sapiens), the Km amounted to 17 ± 6 µM.
